The record followed here is US6960559.

The target in data set [1] is rat CNS myelin, trypsin-treated. The data set is described as follows: solid phase radioimmunoassay, antigen-coated wells, hybridoma supernatant, 125I goat anti-mouse, background subtracted.
Data set [2] concerns the target rat CNS myelin (spinal cord myelin membrane fraction). Described as above.
Data set [3] addresses rat PNS myelin (sciatic nerve myelin membrane fraction). Described as above.
Data set [4] addresses 250 kD CNS myelin associated inhibitory protein from rat CNS myelin (rat). As to the kind of experiment: cell-based or functional assay.
Data set [5] deals with CNS myelin protein liposomes (total rat CNS myelin protein reconstituted in lipid vesicles). As to the kind of experiment: cell-based or functional assay.
The target in data set [6] is rat CNS myelin (spinal cord myelin membrane fraction). The data set is described as follows: cell-based or functional assay.
Data set [7] concerns the target 35 kD CNS myelin associated inhibitory protein from rat CNS myelin (rat). The data set is described as follows: cell-based or functional assay.
The target in data set [8] is 250 kD CNS myelin associated inhibitory protein from rat CNS myelin (rat). The data set is described as follows: solid phase radioimmunoassay on liposomes with gel-extracted protein, 125I goat anti-mouse, background subtracted.
Data set [9] has as its target 35 kD CNS myelin associated inhibitory protein from rat CNS myelin (rat). The description is as above.
A further data set concerns T1, cbz-FAF[125I]Y-NH2.
T1 sequence: FAFY

A value given as a limit tells only on which side of the number the result lay.

Chain of tissue-type plasminogen activator (tPA) (P00750 36-562): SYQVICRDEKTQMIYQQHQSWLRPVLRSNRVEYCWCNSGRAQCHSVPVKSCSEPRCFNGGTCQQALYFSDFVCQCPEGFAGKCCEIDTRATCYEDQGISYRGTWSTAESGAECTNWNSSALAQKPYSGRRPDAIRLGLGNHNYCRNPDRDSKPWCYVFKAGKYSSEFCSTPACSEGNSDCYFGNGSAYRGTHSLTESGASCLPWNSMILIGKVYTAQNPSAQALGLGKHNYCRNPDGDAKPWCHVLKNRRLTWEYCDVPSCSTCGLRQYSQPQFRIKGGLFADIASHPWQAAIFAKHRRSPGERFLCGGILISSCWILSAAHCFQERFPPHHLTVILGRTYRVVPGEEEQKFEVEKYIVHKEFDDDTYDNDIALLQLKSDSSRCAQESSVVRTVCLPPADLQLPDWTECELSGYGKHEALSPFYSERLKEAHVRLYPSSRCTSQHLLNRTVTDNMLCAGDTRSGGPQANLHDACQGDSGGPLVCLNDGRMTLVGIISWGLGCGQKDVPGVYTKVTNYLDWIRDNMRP

Turning to monoclonal antibody IN-1, the Amount of Antibody Bound (cpm of 125I-Labeled Goat Anti-Mouse) in [1] was 25 cpm; in [2] it was 550 cpm; in data set [3], 80 cpm; in data set [8], 250 cpm; in data set [9] it was 350 cpm. This substance gave a 3T3 Spreading (µm^2) on 250 kD liposomes made from IN-1-precipitated protein, Protocol 2 in [4] of 245 µm^2. Further, in data set [5], the 3T3 spreading value on CNS lipos. preadsorbed with IN-1 (no antibody: 1.11) was determined as 2030 µm^2. Also, in data set [5], the % inhibition of 3T3 spreading on CNS lipos. preadsorbed with IN-1 (no antibody: 45) was 10%. The substance also displayed a % inhibition of C6 spreading on CNS lipos. preadsorbed with IN-1, 0.3 mM 1,10-phenanthroline (no antibody: 46) in [5] of 11%. The C6 spreading value on CNS lipos. preadsorbed with IN-1, 0.3 mM 1,10-phenanthroline (no antibody: 1.35) in [5] stood at 2250 µm^2. The substance further yielded a 3T3 Spreading (µm^2) on liposomes of IN-1-immunoprecipitated myelin protein, Protocol 1 in data set [6] of 218 µm^2. The same substance displayed a 3T3 Spreading (µm^2) on liposomes of IN-1-immunoprecipitated myelin protein, Protocol 2 in data set [6] of 215 µm^2. This substance also had a 3T3 Spreading (µm^2) on 35 kD liposomes made from IN-1-precipitated protein, Protocol 2 in data set [7] of 270 µm^2.
On to cathepsin D, for which, in the data set with cbz-FAF[125I]Y-NH2, the Amount necessary to degrade 50% of substrate in 30 min [µg], pH 4.0 was 0.005 µg and the Amount necessary to degrade 50% of substrate in 30 min [µg], pH 7.4 was > 100 µg.
In turn, collagenase gave an Amount necessary to degrade 50% of substrate in 30 min with cbz-FAF[125I]Y-NH2 of 3 µg.
On to tissue-type plasminogen activator (tPA), for which the Amount necessary to degrade 50% of substrate in 30 min with cbz-FAF[125I]Y-NH2 is > 100 µg.
In data set [6], “C6 plasma membrane associated metalloendoprotease (rat C6 glioblastoma cells) (enzyme)” yielded a 3H-Thymidine Incorporation (%) of 3T3 cells on CNS myelin preincubated with C6 PM (untreated CNS myelin: 30) of 83% and a 3T3 Cell Spreading (%) on CNS myelin preincubated with C6 PM (untreated CNS myelin: 15) of 52%.
For the substance trypsin, the Amount necessary to degrade 50% of substrate in 30 min in the data set on cbz-FAF[125I]Y-NH2 stood at 0.3 µg.
For the substance “C6 plasma membrane associated metalloendoprotease (rat C6 glioblastoma cells)”, in the data set with cbz-FAF[125I]Y-NH2, the Amount necessary to degrade 50% of substrate in 30 min [µg], total C6 PM protein was 1.5 µg and the “cbz-FAF[125I]Y-NH2 degradation by the plasma membrane fraction (5 µg)” value was 2.7 nmol/min.
Turning to urokinase (uPA), the Amount necessary to degrade 50% of substrate in 30 min with cbz-FAF[125I]Y-NH2 is > 100 µg.
